Data published in patent US20190062396A1.

Biological target: thyrotropin receptor (TSHR) (UniProt P16473)
Test: cell-based or functional assay

Chain of UniProt P16473 (P16473 21-764 limits assumed): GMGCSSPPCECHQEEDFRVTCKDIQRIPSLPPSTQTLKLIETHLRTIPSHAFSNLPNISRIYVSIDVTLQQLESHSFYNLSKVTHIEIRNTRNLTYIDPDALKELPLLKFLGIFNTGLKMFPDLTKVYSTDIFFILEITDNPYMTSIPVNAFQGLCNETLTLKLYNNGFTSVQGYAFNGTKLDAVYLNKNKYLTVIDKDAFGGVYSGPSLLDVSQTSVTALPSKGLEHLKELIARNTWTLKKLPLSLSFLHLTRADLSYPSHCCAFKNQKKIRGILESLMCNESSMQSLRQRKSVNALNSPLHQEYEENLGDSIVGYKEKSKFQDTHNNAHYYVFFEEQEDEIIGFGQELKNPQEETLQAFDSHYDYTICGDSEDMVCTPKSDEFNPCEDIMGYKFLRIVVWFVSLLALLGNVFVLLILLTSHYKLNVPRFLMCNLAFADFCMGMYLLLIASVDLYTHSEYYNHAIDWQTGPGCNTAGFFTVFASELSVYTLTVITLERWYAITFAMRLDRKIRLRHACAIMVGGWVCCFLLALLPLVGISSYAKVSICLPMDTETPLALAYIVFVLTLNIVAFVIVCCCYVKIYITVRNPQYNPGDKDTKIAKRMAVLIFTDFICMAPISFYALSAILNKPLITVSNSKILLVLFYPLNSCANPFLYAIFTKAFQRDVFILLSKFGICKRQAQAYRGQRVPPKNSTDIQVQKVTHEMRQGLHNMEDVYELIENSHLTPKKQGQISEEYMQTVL

Q: “recombinant human thyroid stimulating hormone (rhTSH) produced and purified by the method of the invention (from UniProt P01215 25-116; P01222 21-138) (ligand)” was tested. Which EC50 of cAMP induction (RLU, HitHunter cAMP XS+ luminescence) in CHO-K1 cells expressing TSHR, relative to the control group (Thyrogen) did it give?
A: 99%
